Laboratory results as given in US12723078 (University of Texas, dated 2026).

Experiments:
Test in all cases: flow cytometry on LILR reporter cells, 0.5 µg/mL rabbit B1-176, anti-rabbit IgG PE
[1] = molecular target: T1, LILRB3 on reporter cells (UniProt O75022 24-631, limits assumed)
T1 construct: whole, on cells

[2] = molecular target: T2, LILRB4 on reporter cells (UniProt Q8NHJ6 22-448)
T2 construct: whole, on cells

[3] = molecular target: T3, LILRB5 on reporter cells (UniProt O75023 24-590, limits assumed)
T3 construct: whole, on cells

[4] = molecular target: T4, LILRA1 on reporter cells (UniProt O75019 17-489, limits assumed)
T4 construct: whole, on cells

[5] = molecular target: T5, LILRB1 expressed on cell surface (human, UniProt Q8NHL6 24-650)
T5 construct: One entry is used for LILRB1 on reporter cells and on NK cells; also called LILRB1 NFAT-GFP reporter cell; LILRB1 reporter cells

[6] = molecular target: T6, LILRA2 on reporter cells (UniProt Q8N149 24-483)
T6 construct: whole, on cells

[7] = molecular target: T7, LILRA3 on reporter cells (UniProt Q8N6C8 24-439)
T7 construct: whole, on cells

[8] = molecular target: T8, LILRA4 on reporter cells (UniProt P59901 24-499)
T8 construct: whole, on cells

[9] = molecular target: T9, LILRA5 on reporter cells (UniProt A6NI73 42-299)
T9 construct: whole, on cells

[10] = molecular target: T10, LILRA6 on reporter cells (UniProt Q6PI73 24-481)
T10 construct: whole, on cells
T10 sequence (Q6PI73 24-481): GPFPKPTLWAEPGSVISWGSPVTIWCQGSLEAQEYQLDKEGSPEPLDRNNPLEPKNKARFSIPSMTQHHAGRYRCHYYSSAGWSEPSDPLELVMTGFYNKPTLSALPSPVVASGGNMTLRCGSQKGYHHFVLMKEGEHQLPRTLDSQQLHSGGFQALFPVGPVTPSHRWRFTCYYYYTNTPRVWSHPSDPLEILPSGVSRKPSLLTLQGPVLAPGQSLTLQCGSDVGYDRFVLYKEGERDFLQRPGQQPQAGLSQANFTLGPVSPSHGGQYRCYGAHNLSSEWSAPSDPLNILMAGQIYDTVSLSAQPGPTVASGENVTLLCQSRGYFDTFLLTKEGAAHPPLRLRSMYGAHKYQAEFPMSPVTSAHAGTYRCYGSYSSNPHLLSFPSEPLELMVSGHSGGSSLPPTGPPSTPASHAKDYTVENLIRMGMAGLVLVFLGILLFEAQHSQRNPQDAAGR

T5 sequence (Q8NHL6 24-650 limits assumed): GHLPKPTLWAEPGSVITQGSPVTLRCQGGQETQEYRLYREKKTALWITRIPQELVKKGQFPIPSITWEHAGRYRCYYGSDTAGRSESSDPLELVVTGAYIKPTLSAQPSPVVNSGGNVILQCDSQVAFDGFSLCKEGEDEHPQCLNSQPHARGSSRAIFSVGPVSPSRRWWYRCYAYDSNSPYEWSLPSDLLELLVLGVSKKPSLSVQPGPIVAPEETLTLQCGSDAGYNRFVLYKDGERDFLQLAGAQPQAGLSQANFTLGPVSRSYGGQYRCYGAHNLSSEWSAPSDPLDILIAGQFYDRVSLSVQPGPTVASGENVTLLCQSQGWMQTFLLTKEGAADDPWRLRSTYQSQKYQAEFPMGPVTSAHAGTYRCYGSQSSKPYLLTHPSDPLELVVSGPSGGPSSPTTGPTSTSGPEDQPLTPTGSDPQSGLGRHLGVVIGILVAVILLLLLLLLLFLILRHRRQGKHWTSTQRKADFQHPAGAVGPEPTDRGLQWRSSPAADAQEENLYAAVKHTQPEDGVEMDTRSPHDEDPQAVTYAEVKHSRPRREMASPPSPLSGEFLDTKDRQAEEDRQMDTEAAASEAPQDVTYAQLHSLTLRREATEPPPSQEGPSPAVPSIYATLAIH
T6 sequence (Q8N149 24-483): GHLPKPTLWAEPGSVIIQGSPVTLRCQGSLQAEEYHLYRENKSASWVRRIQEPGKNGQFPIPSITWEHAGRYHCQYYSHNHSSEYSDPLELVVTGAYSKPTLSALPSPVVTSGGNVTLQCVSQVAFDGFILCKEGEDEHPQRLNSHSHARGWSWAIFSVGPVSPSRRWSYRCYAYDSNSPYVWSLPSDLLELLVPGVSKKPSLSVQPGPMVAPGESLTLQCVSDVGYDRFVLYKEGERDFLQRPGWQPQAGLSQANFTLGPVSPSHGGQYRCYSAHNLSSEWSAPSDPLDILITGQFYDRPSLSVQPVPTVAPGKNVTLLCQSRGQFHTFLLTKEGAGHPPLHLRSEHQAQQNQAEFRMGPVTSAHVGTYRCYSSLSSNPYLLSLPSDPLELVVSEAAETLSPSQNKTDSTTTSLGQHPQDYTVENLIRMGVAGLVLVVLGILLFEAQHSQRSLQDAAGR
T9 sequence (A6NI73 42-299): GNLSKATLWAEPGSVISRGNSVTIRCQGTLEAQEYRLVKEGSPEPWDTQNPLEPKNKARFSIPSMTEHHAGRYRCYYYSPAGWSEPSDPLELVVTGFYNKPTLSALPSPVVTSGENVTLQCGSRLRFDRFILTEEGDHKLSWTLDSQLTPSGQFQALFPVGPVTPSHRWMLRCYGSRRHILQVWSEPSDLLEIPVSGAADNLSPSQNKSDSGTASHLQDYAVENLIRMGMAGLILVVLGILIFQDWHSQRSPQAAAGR
T7 sequence (Q8N6C8 24-439): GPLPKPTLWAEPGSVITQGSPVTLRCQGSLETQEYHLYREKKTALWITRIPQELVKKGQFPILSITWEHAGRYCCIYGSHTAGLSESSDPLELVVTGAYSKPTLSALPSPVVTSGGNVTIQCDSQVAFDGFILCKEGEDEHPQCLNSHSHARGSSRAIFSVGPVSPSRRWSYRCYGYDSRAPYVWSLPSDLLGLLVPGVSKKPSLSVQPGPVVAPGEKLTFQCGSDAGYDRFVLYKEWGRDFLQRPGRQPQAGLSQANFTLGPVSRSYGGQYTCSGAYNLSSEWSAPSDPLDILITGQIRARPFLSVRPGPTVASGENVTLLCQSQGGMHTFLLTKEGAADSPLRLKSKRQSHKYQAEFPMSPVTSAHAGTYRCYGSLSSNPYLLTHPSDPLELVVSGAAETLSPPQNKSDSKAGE
T3 sequence (O75023 24-590 limits assumed): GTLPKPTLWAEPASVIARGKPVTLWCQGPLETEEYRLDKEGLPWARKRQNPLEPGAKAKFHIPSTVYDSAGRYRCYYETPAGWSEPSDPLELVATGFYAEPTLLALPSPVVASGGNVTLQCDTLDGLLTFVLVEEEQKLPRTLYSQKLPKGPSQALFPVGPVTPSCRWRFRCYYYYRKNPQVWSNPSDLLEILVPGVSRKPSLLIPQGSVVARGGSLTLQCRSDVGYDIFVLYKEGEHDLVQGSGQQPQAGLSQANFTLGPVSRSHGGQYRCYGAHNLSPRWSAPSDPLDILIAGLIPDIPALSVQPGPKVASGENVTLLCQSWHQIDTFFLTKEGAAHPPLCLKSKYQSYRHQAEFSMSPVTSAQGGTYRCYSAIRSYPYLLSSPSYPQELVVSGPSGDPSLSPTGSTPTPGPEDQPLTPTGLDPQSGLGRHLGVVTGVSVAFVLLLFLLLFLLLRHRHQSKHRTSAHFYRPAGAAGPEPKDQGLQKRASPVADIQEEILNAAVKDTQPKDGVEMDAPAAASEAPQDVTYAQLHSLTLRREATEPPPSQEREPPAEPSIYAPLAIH
T4 sequence (O75019 17-489 limits assumed): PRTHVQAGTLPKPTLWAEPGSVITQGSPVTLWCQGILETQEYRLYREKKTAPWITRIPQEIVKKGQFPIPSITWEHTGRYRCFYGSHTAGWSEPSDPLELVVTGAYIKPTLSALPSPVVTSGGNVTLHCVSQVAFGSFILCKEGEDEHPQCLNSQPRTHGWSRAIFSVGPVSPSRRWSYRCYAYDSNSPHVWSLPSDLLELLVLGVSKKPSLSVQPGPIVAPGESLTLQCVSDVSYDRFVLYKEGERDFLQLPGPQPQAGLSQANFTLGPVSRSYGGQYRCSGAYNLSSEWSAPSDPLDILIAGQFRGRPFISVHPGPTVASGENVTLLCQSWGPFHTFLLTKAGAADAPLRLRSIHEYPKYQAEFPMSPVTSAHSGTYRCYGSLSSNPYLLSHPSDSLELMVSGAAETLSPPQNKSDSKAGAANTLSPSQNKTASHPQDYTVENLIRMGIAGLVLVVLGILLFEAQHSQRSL
T8 sequence (P59901 24-499): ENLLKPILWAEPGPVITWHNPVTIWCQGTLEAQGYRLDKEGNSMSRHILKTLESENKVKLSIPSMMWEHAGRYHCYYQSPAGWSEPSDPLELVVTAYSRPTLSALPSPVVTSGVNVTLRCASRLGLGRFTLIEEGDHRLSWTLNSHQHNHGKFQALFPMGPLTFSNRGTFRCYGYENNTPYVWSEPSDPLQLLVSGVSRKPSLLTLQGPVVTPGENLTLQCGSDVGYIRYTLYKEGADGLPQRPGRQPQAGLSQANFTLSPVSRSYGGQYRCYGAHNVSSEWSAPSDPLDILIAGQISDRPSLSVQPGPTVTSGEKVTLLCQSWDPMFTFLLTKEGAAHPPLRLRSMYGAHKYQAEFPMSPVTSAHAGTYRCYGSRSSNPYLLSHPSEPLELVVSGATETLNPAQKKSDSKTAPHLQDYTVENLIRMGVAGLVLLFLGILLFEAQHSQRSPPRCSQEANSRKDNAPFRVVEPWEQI

B1: B1-176 rabbit antibody (antibody, V domains shown)
VH: QSLEESEGGLVKPGGTLTLTCTASGFSFSSSYCMCWVRQAPGKGLELIACIYTDSSGATYYASWAKGRFTISKSSSTTITLQMTSLTAADTATYFCARGWDYEDPGYTDTTYFSLWGPGTLVTVSS
VL: ELDLTQTPSSVEAAVGGTVTIKCQASQTIYTNLAWYQQKPGQPPNLLIYAASTLASGVSSRFKGSGSGTEFTLTISDLECADAATYYCQSYYGSSTTGNGFGGGTEVEIK
notes: Full-length rabbit IgG, kappa; Variable genes were cloned into a rabbit IgG expression vector and expressed in Expi293F cells
[1]
  percent of cells in the gate: 0.07%
[2]
  percent of cells in the gate: 0.18%
[3]
  percent of cells in the gate: 0.29%
[4]
  percent of cells in the gate: 0.12%
[5]
  percent of cells in the gate: 99%
[6]
  percent of cells in the gate: 0.11%
[7]
  percent of cells in the gate: 0.1%
[8]
  percent of cells in the gate: 0.074%
[9]
  percent of cells in the gate: 0.1%
[10]
  percent of cells in the gate: 0.12%
